These results are taken from patent publication US20030186322A1 (Scripps Research, published 2003).

To fix the notation:
B1: 92H2 phage Fv (VH-(Gly4Ser)-pVII / VL-(Gly4Ser)-pIX heterodimer displayed on phage) (other)
VH: MAEVQLQQSGPELKKPGETVKISCKTSGYSFTNYGMNWVKQAPGKGLKWMGWINTYTGEPTYADDFRGRFAFSLATSASTAYLQIINLKNEDTATYFCETYDSPLGDYWGQGTTVTVSSSSGGGGSGMEQVADFDTIYQAMIQISVVLCFALGIIAGGQR
VL: DIGLTQSPASLAVSLGQRATISCRASKSVSTSGYNYMHWYQQKPGQPPKLLIYLASNLASGVPARFSGSGSGTDFTLNIHPVEEEDAATYYCLYSREFPPWTFGGGTKLEIKRSGGGGSMSVLVYSFASFVLGWCLRSGITYFTRLMETSS
notes: also called 92H2 phage antibody; 92H2-VHVL
B2: 21H3 phage Fv (VH-(Gly4Ser)-pVII / VL-(Gly4Ser)-pIX heterodimer displayed on phage) (other)
VH: MAEVQLLEVQLQQSGPVLVKPGGSVKMSCKASEYTLTSYLFQWVKQKSGQGLEWIGYIYPYNGGTRYNEKFRGKATLTSDKSSNTAYLELSSLTSEDSAVYYCARSSMSDPGANWGPGTLVTVSGGGGSGMEQVADFDTIYQAMIQISVVLCFALGIIAGGQR
VL: DIQMTQSPSSLSASLGERVSLTCRASQEISGYLYWLQQKPDGTIKRLIYAASTLDSGVPKRFSGSRSGSDYSLTISSLESEDFADYYCLQYASYPRTFGGGTKVEIKRADSGGGGSMSVLVYSFASFVLGWCLRSGITYFTRLMETSS
notes: also called 21H3 phage antibody; 21H3-VHVL
B3: 2H6 phage Fv (VH-(Gly4Ser)-pVII / VL-(Gly4Ser)-pIX heterodimer displayed on phage) (other)
VH: MAEVQLLEEVNLVESGGGLVKPGGSLKLSCAASGFTFSSYAMSWVRQTPEKRLEWVASINNGGKIYYPDSVKGRFTISRDNARNILYLQMSSLRSEDTAMYYCVKRDSSVYDYAMDNWGQGTSVTVSSGGGGSGMEQVADFDTIYQAMIQISVVLCFALGIIAGGQR
VL: VLTQSPAIMYASPGEKVTITCSASSSVSYMHWFQQKPGTSPKLWIYSTSKLASGVPARFSGSGSGTSYSLTISRMEAEDVATYYCQQRSSYTVTFGAGTKLELKRTSGGGGSMSVLVYSFASFVLGWCLRSGITYFTRLMETSS
notes: also called 2H6 phage antibody; 2H6-VHVL

T1 sequence (P02769 25-607 limits assumed): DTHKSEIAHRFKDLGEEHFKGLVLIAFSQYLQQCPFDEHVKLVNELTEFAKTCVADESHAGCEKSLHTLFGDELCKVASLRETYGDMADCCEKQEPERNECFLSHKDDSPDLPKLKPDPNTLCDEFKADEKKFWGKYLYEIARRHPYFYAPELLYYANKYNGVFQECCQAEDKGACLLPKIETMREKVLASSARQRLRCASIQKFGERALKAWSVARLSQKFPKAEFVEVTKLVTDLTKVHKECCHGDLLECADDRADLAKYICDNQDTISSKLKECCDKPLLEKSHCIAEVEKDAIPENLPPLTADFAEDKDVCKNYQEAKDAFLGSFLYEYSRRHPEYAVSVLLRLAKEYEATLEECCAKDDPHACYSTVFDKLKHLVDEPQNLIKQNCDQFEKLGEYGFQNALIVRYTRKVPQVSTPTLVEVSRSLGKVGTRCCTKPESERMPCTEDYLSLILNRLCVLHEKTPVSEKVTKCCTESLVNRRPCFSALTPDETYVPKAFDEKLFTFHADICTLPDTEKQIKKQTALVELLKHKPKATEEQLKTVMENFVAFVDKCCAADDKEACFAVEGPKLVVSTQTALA

This assay addresses T1, BSA (bovine serum albumin) (bovine, UniProt P02769 25-607).
T1 construct: Carrier protein without hapten; also called BSA-gold complex
The experiment in a line: phage ELISA. The method, then:
The supernatant of the phage culture described above was directly used for ELISA. Microtiter wells (Corning) were coated with 25 μl of 10 μg/ml mouse anti-Flag antibody to assay Flag constructs with pVII/pIX, with PCP-BSA for 21H3 and 2H6 constructs, and with the cocaine conjugate GNC—BSA to assay the 92H2 construct. The coated plates were then incubated at room temperature overnight and blocked with 50 μl of Blotto (4% skim milk powder in PBS). Typically, 25 μl of phage supernatant was added and the plate was incubated at 37 C. for 1 hr. After washing, 25 μl of 1/1000 dilution of horseradish peroxidase/anti-M13 conjugate (Pharmacia) in Blotto was added and incubated at 37 C. for 30 minutes. The plate was extensively washed three times with PBS/0.1% tween-20 and pipetted vigorously up and down to remove nonspecific binding phage. The plate was then developed with TMB (3,3′,5,5′-tetramethylbenzidine) substrate (Pierce) and quenched with an equal volume of 2 M H₂SO₄. The absorbance of each reaction was then read on an ELISA Plate reader at 450 nM.
Background: ELISA stands for enzyme-linked immunosorbent assay.
For B1, the binding result is “no binding”.

Turning to B2, the binding result is recorded as “no binding”. As for B3, the binding result was “no binding”.
